Assay results as given in US7262177B2, “Conjugates of glycosylated/galactosylated peptide, bifunctional linker, and nucleotidic monomers/polymers, and related compositions and methods of use” (priority 2000, dated 2007).
Values joined by “and” are separate entries in the source; they are usually repeats but may differ in a detail not shown here. Equal values may be shown once.

How the values were obtained:
[1] = Serum stability of po 1-mer conjugate, HPLC method (b), column 2; format: in vitro ADME; conditions: 37° C.; for Average Peak area / Trial Peak area: human serum
Protocol: Studies were carried out at physiological conditions. The analyses were accomplished using reversed-phase HPLC and PAGE methods. The raw data are presented in table format (Tables 1, 2 and 3). The serum half-life calculated is t1/2=1/k (0.693), derived from the [A]=[A0]e^−kt, where [A0] is the original amount of substrate, [A] is the measured substrate level, t is time (min), and k is the first-order rate constant.
(b) Reaction Conditions: 100 μl of human serum were added to 20 nmoles of HPLc purified po 1-mer Conjugate and incubated at 37° C. for allotted time periods (0 min, 15 min, 60 min, 120 min, 240 min). HPLC gradient: 100% Buffer A (0.05M NaxPO4 (pH 5.8) in 2% CH3CN) for 5 min, then 2% CH3CN to 50% CH3CN over the next 20 min. Column 2: flow 4.7 ml/min, Rainin Semi-Preparative C18 reversed-phase column (10 mm i.d.×250 mm L) (Table 2).

[2] = Stability of 1-mer conjugates in RPMI 1640+10% FCS (PAGE); format: in vitro ADME; conditions: up to 8 hrs, PAGE analysis
Protocol: Initially, the stability of the two neoglycoconjugates was assessed in RPMI 1640+10% FCS. […] In terms of cellular uptake, the po-linked conjugate at a dose of 1 μM was taken up rapidly in a progressive manner by Hep G2 cells in vitro to the extent of 24.75 pmoles/10^6 cells at 480 min. The rate of cellular uptake was next analyzed with respect to the administered dose of the conjugate. […] This amount doubled within the next 30 min and peaked at 25 pmoles/million cells at 480 min. […] While the administration of 4 μM conjugate led to a linear increase of conjugate uptake with respect to time, the rate at which cellular uptake occurred upon the administration of 8 μM conjugate rose sharply at 120 min.

CC(=O)N[C@H]1[C@H](OCCCCCCNC(=O)CC[C@H](NC(=O)CC[C@H](NC(=O)[C@H](Cc2ccc(O)cc2)NC(=O)C2CCC(CN3C(=O)CC(SCCCCCCOP(=O)(O)OC[C@H]4O[C@@H](n5cc(F)c(=O)[nH]c5=O)C[C@@H]4O)C3=O)CC2)C(=O)NCCCCCCO[C@@H]2O[C@H](CO)[C@H](O)[C@H](O)[C@H]2NC(C)=O)C(=O)NCCCCCCO[C@@H]2O[C@H](CO)[C@H](O)[C@H](O)[C@H]2NC(C)=O)O[C@H](CO)[C@H](O)[C@@H]1O (stereo partly drawn) [po 1-mer, YEE(ahGalNAc)3-SMCC-poFU]
Average Peak area ([1]; 0 min): 13.57 | Trial Peak area ([1]; 0 min, listed as po 1-mer Conjugate): 13.07 and 12.68 and 14.97 | Average Peak area ([1]; 15 min): 14.86 | Trial Peak area ([1]; 15 min): 14.86 | Average Peak area ([1]; 60 min): 14.22 | Trial Peak area ([1]; 60 min): 14.22 | Average Peak area ([1]; 120 min): 11.96 | Trial Peak area ([1]; 120 min): 11.96 | Average Peak area ([1]; 240 min): 9.727 | Trial Peak area ([1]; 240 min): 9.727 | half-life at 200 µM ([1]; human, serum, HPLC (b), read-out: serum t1/2): 6.78 h | stability in media containing 10% FCS [2]: stable
